Assay results from the supplement of paper PMC11246515.
± gives the standard deviation of the averaged measurements.

Experiment: total protein half-life in vivo (active degradation + dilution); higher = more stable protein
[1] = E. coli NCM3722 delta-clpP delta-lon delta-hslV, growth: N-lim chemostat, doubling time 6 h
[2] = E. coli NCM3722 delta-clpP, growth: N-lim chemostat, doubling time 6 h
[3] = E. coli NCM3722 delta-hslV, growth: N-lim chemostat, doubling time 6 h
[4] = E. coli NCM3722 delta-lon, growth: N-lim chemostat, doubling time 6 h
[5] = E. coli NCM3722 delta-smpB, growth: N-lim chemostat, doubling time 6 h
[6] = wild type E. coli NCM3722, growth: C-lim chemostat, doubling time 3 h
[7] = wild type E. coli NCM3722, growth: C-lim chemostat, doubling time 12 h
[8] = wild type E. coli NCM3722, growth: N-lim chemostat, doubling time 6 h
[9] = wild type E. coli NCM3722, growth: N-lim chemostat, doubling time 12 h
[10] = wild type E. coli NCM3722, growth: P-lim chemostat, doubling time 6 h
[11] = wild type E. coli NCM3722, growth: P-lim chemostat, doubling time 12 h
[12] = wild type E. coli NCM3722, growth: C-lim chemostat, doubling time 6 h

Sequence	total protein half-life in vivo [1] [h]	total protein half-life in vivo [2] [h]	total protein half-life in vivo [3] [h]	total protein half-life in vivo [4] [h]	total protein half-life in vivo [5] [h]	total protein half-life in vivo [6] [h]	total protein half-life in vivo [7] [h]	total protein half-life in vivo [8] [h]	total protein half-life in vivo [9] [h]	total protein half-life in vivo [10] [h]	total protein half-life in vivo [11] [h]	total protein half-life in vivo [12] [h]
MTTETRSLYSQLPAIDRLLRDSSFLSLRDTYGHTRVVELLRQMLDEAREVIRGSQTLPAWCENWAQEVDARLTKEAQSALRPVINLTGTVLHTNLGRALQAEAAVEAVAQAMRSPVTLEYDLDDAGRGHRDRALAQLLCRITGAEDACIVNNNAAAVLLMLAATASGKEVVVSRGELVEIGGAFRIPDVMRQAGCTLHEVGTTNRTHANDYRQAVNENTALLMKVHTSNYSIQGFTKAIDEAELVALGKELDVPVVTDLGSGSLVDLSQYGLPKEPMPQELIAAGVSLVSFSGDKLLGGPQAGIIVGKKEMIARLQSHPLKRALRADKMTLAALEATLRLYLHPEALSEKLPTLRLLTRSAEVIQIQAQRLQAPLAAHYGAEFAVQVMPCLSQIGSGSLPVDRLPSAALTFTPHDGRGSHLESLAARWRELPVPVIGRIYDGRLWLDLRCLEDEQRFLEMLLK [P0A821]	6.33 ± 0.17	6.19 ± 0.19	5.62 ± 1	5.86 ± 0.47	5.49 ± 0.32	3.16 ± 0.51	11.7 ± 0.94	5.64 ± 0.39	10.6 ± 1	6.06 ± 0.4	11.9 ± 1.1	–
MTSLVSLENVSVSFGQRRVLSDVSLELKPGKILTLLGPNGAGKSTLVRVVLGLVTPDEGVIKRNGKLRIGYVPQKLYLDTTLPLTVNRFLRLRPGTHKEDILPALKRVQAGHLINAPMQKLSGGETQRVLLARALLNRPQLLVLDEPTQGVDVNGQVALYDLIDQLRRELDCGVLMVSHDLHLVMAKTDEVLCLNHHICCSGTPEVVSLHPEFISMFGPRGAEQLGIYRHHHNHRHDLQGRIVLRRGNDRS [P0A9X1]	5.6 ± 0.31	5.12 ± 0.41	2.88 ± 1.1	2 ± 0.1	4.75 ± 2.8	2.63 ± 0.088	6.41 ± 2.1	2.6 ± 0.37	5.01 ± 2	4.12 ± 0.059	7.83 ± 2	4.39 ± 0.11
MLKRVFLSLLVLIGLLLLTVLGLDRWMSWKTAPYIYDELQDLPYRQVGVVLGTAKYYRTGVINQYYRYRIQGAINAYNSGKVNYLLLSGDNALQSYNEPMTMRKDLIAAGVDPSDIVLDYAGFRTLDSIVRTRKVFDTNDFIIITQRFHCERALFIALHMGIQAQCYAVPSPKDMLSVRIREFAARFGALADLYIFKREPRFLGPLVPIPAMHQVPEDAQGYPAVTPEQLLELQKKQGK [P0AFY2]	5.75 ± 0.44	–	6.88 ± 0.82	5.72 ± 0.66	6.021 ± 0.027	3.1 ± 0.074	10.9 ± 0.74	5.85 ± 0.23	11.6 ± 1.1	5.92 ± 0.26	12.3 ± 0.33	5.81 ± 0.24
MKFVKYFLILAVCCILLGAGSIYGLYRYIEPQLPDVATLKDVRLQIPMQIYSADGELIAQYGEKRRIPVTLDQIPPEMVKAFIATEDSRFYEHHGVDPVGIFRAASVALFSGHASQGASTITQQLARNFFLSPERTLMRKIKEVFLAIRIEQLLTKDEILELYLNKIYLGYRAYGVGAAAQVYFGKTVDQLTLNEMAVIAGLPKAPSTFNPLYSMDRAVARRNVVLSRMLDEGYITQQQFDQTRTEAINANYHAPEIAFSAPYLSEMVRQEMYNRYGESAYEDGYRIYTTITRKVQQAAQQAVRNNVLDYDMRHGYRGPANVLWKVGESAWDNNKITDTLKALPTYGPLLPAAVTSANPQQATAMLADGSTVALSMEGVRWARPYRSDTQQGPTPRKVTDVLQTGQQIWVRQVGDAWWLAQVPEVNSALVSINPQNGAVMALVGGFDFNQSKFNRATQALRQVGSNIKPFLYTAAMDKGLTLASMLNDVPISRWDASAGSDWQPKNSPPQYAGPIRLRQGLGQSKNVVMVRAMRAMGVDYAAEYLQRFGFPAQNIVHTESLALGSASFTPMQVARGYAVMANGGFLVDPWFISKIENDQGGVIFEAKPKVACPECDIPVIYGDTQKSNVLENNDVEDVAISREQQNVSVPMPQLEQANQALVAKTGAQEYAPHVINTPLAFLIKSALNTNIFGEPGWQGTGWRAGRDLQRRDIGGKTGTTNSSKDAWFSGYGPGVVTSVWIGFDDHRRNLGHTTASGAIKDQISGYEGGAKSAQPAWDAYMKAVLEGVPEQPLTPPPGIVTVNIDRSTGQLANGGNSREEYFIEGTQPTQQAVHEVGTTIIDNGEAQELF	5.593 ± 0.05	5.49 ± 0.056	5.4453 ± 0.0032	6.37 ± 1.3	5.3 ± 0.31	3.35 ± 0.36	10.82 ± 0.022	5.08 ± 0.37	10.2 ± 0.59	4.46 ± 0.3	7.61 ± 0.27	5.7 ± 0.38
MRICSDQPCIVLLTEKDVWIRVNGKEPISLKANHMALLNCENNIIDVSSLNNTLVAHISHDIIKDYLRFLNKDLSQIPVWQRSATPILTLPCLTPDVFRVAAQHSMMPAETESEKERTRALLFTVLSRFLDSKKFVSLMMYMLRNCVSDSVYQIIESDIHKDWNLSMVASCLCLSPSLLKKKLKSENTSYSQIITTCRMRYAVNELMMDGKNISQVSQSCGYNSTSYFISVFKDFYGMTPLHYVSQHRERTVA	–	–	–	–	1.24	–	–	–	–	–	–	–
MIFSDWPWRHWRQVRGETIALRLNDEQLNWRELCARVDELASGFAVQGVVEGSGVMLRAWNTPQTLLAWLALLQCGARVLPVNPQLPQPLLEELLPNLTLQFALVPDGENTFPALTSLHIQLVEGAHAATWQPTRLCSMTLTSGSTGLPKAAVHTYQAHLASAQGVLSLIPFGDHDDWLLSLPLFHVSGQGIMWRWLYAGARMTVRDKQPLEQMLAGCTHASLVPTQLWRLLVNRSSVSLKAVLLGGAAIPVELTEQAREQGIRCFCGYGLTEFASTVCAKEADGLADVGSPLPGREVKIVNNEVWLRAASMAEGYWRNGQLVSLVNDEGWYATRDRGEMHNGKLTIVGRLDNLFFSGGEGIQPEEVERVIAAHPAVLQVFIVPVADKEFGHRPVAVMEYDHESVDLSEWVKDKLARFQQPVRWLTLPPELKNGGIKISRQALKEWVQRQQ	–	4.96	3.92	–	–	3.2	11.3 ± 1.4	4.4	–	6.327 ± 0.016	10.3 ± 1	> 8
MFTRVANFCRKVLSREESEAEQAVARPQVTVIPREQHAISRKDISENALKVMYRLNKAGYEAWLVGGGVRDLLLGKKPKDFDVTTNATPEQVRKLFRNCRLVGRRFRLAHVMFGPEIIEVATFRGHHEGNVSDRTTSQRGQNGMLLRDNIFGSIEEDAQRRDFTINSLYYSVADFTVRDYVGGMKDLKDGVIRLIGNPETRYREDPVRMLRAVRFAAKLGMRISPETAEPIPRLATLLNDIPPARLFEESLKLLQAGYGYETYKLLCEYHLFQPLFPTITRYFTENGDSPMERIIEQVLKNTDTRIHNDMRVNPAFLFAAMFWYPLLETAQKIAQESGLTYHDAFALAMNDVLDEACRSLAIPKRLTTLTRDIWQLQLRMSRRQGKRAWKLLEHPKFRAAYDLLALRAEVERNAELQRLVKWWGEFQVSAPPDQKGMLNELDEEPSPRRRTRRPRKRAPRREGTA [P0ABF1]	6.05 ± 0.76	5.89 ± 0.71	3.67 ± 0.17	3.728 ± 0.025	3.45 ± 0.18	2.324 ± 0.019	6.58 ± 0.41	3.84 ± 0.079	6.19 ± 0.3	3.92 ± 0.57	7.24 ± 0.26	4.37 ± 0.12
